B1: ESM-1 (protein, UniProt Q9NQ30 20-184, looked up)
Endothelial cell-specific …: WSNNYAVDCPQHCDSSECKSSPRCKRTVLDDCGCCRVCAAGRGETCYRTVSGMDGMKCGPGLRCQPSNGEDPFGEEFGICKDCPYGTFGMDCRETCNCQSGICDRGTGKCLKFPFFQYSVTKSSNRFVSLTEHDMASGDGNIVREEVVKENAAGSPVMRKWLNPR
B2: EGLN1 (protein, UniProt Q9GZT9 2-426, looked up)
Egl nine homolog 1: ANDSGGPGGPSPSERDRQYCELCGKMENLLRCSRCRSSFYCCKEHQRQDWKKHKLVCQGSEGALGHGVGPHQHSGPAPPAAVPPPRAGAREPRKAAARRDNASGDAAKGKVKAKPPADPAAAASPCRAAAGGQGSAVAAEAEPGKEEPPARSSLFQEKANLYPPSNTPGDALSPGGGLRPNGQTKPLPALKLALEYIVPCMNKHGICVVDDFLGKETGQQIGDEVRALHDTGKFTDGQLVSQKSDSSKDIRGDKITWIEGKEPGCETIGLLMSSMDDLIRHCNGKLGSYKINGRTKAMVACYPGNGTGYVRHVDNPNGDGRCVTCIYYLNKDWDAKVSGGILRIFPEGKAQFADIEPKFDRLLFFWSDRRNPHEVQPAYATRYAITVWYFDADERARAKVKYLTGEKGVRVELNKPSDSVGKDVF
B3: IL-5R-alpha (protein, UniProt Q01344 21-420, looked up)
Interleukin-5 receptor …: DLLPDEKISLLPPVNFTIKVTGLAQVLLQWKPNPDQEQRNVNLEYQVKINAPKEDDYETRITESKCVTILHKGFSASVRTILQNDHSLLASSWASAELHAPPGSPGTSIVNLTCTTNTTEDNYSRLRSYQVSLHCTWLVGTDAPEDTQYFLYYRYGSWTEECQEYSKDTLGRNIACWFPRTFILSKGRDWLAVLVNGSSKHSAIRPFDQLFALHAIDQINPPLNVTAEIEGTRLSIQWEKPVSAFPIHCFDYEVKIHNTRNGYLQIEKLMTNAFISIIDDLSKYDVQVRAAVSSMCREAGLWSEWSQPIYVGNDEHKPLREWFVIVIMATICFILLILSLICKICHLWIKLFPPIPAPKSNIKDLFVTTNYEKAGSSETEIEVICYIEKPGVETLEDSVF
B4: gal-8 (protein, UniProt O00214 1-317, looked up)
Galectin-8: MMLSLNNLQNIIYNPVIPFVGTIPDQLDPGTLIVIRGHVPSDADRFQVDLQNGSSMKPRADVAFHFNPRFKRAGCIVCNTLINEKWGREEITYDTPFKREKSFEIVIMVLKDKFQVAVNGKHTLLYGHRIGPEKIDTLGIYGKVNIHSIGFSFSSDLQSTQASSLELTEISRENVPKSGTPQLRLPFAARLNTPMGPGRTVVVKGEVNANAKSFNVDLLAGKSKDIALHLNPRLNIKAFVRNSFLQESWGEEERNITSFPFSPGMYFEMIIYCDVREFKVAVNGVHSLEYKHRFKELSSIDTLEINGDIHLLEVRSW
B5: GCNT1 (protein, UniProt Q02742 1-428, looked up)
Beta-1,3-galactosyl-O-glycosyl …: MLRTLLRRRLFSYPTKYYFMVLVLSLITFSVLRIHQKPEFVSVRHLELAGENPSSDINCTKVLQGDVNEIQKVKLEILTVKFKKRPRWTPDDYINMTSDCSSFIKRRKYIVEPLSKEEAEFPIAYSIVVHHKIEMLDRLLRAIYMPQNFYCIHVDTKSEDSYLAAVMGIASCFSNVFVASRLESVVYASWSRVQADLNCMKDLYAMSANWKYLINLCGMDFPIKTNLEIVRKLKLLMGENNLETERMPSHKEERWKKRYEVVNGKLTNTGTVKMLPPLETPLFSGSAYFVVSREYVGYVLQNEKIQKLMEWAQDTYSPDEYLWATIQRIPEVPGSLPASHKYDLSDMQAVARFVKWQYFEGDVSKGAPYPPCDGVHVRSVCIFGAGDLNWMLRKHHLFANKFDVDVDLFAIQCLDEHLRHKALETLKH
B6: STK4 (protein, UniProt Q13043 1-487, looked up)
Serine/threonine-protein …: METVQLRNPPRRQLKKLDEDSLTKQPEEVFDVLEKLGEGSYGSVYKAIHKETGQIVAIKQVPVESDLQEIIKEISIMQQCDSPHVVKYYGSYFKNTDLWIVMEYCGAGSVSDIIRLRNKTLTEDEIATILQSTLKGLEYLHFMRKIHRDIKAGNILLNTEGHAKLADFGVAGQLTDTMAKRNTVIGTPFWMAPEVIQEIGYNCVADIWSLGITAIEMAEGKPPYADIHPMRAIFMIPTNPPPTFRKPELWSDNFTDFVKQCLVKSPEQRATATQLLQHPFVRSAKGVSILRDLINEAMDVKLKRQESQQREVDQDDEENSEEDEMDSGTMVRAVGDEMGTVRVASTMTDGANTMIEHDDTLPSQLGTMVINAEDEEEEGTMKRRDETMQPAKPSFLEYFEQKEKENQINSFGKSVPGPLKNSSDWKIPQDGDYEFLKSWTVEDLQKRLLALDPMMEQEIEEIRQKYQSKRQPILDAIEAKKRRQQNF
B7: SNAP29 (protein, UniProt O95721 1-258, looked up)
Synaptosomal-associated …: MSAYPKSYNPFDDDGEDEGARPAPWRDARDLPDGPDAPADRQQYLRQEVLRRAEATAASTSRSLALMYESEKVGVASSEELARQRGVLERTEKMVDKMDQDLKISQKHINSIKSVFGGLVNYFKSKPVETPPEQNGTLTSQPNNRLKEAISTSKEQEAKYQASHPNLRKLDDTDPVPRGAGSAMSTDAYPKNPHLRAYHQKIDSNLDELSMGLGRLKDIALGMQTEIEEQDDILDRLTTKVDKLDVNIKSTERKVRQL
B8: SH2B3 (protein, UniProt Q9UQQ2 1-575, looked up)
SH2B adapter protein 3: MNGPALQPSSPSSAPSASPAAAPRGWSEFCELHAVAAARELARQYWLFAREHPQHAPLRAELVSLQFTDLFQRYFCREVRDGRAPGRDYRDTGRGPPAKAEASPEPGPGPAAPGLPKARSSEELAPPRPPGPCSFQHFRRSLRHIFRRRSAGELPAAHTAAAPGTPGEAAETPARPGLAKKFLPWSLAREPPPEALKEAVLRYSLADEASMDSGARWQRGRLALRRAPGPDGPDRVLELFDPPKSSRPKLQAACSSIQEVRWCTRLEMPDNLYTFVLKVKDRTDIIFEVGDEQQLNSWMAELSECTGRGLESTEAEMHIPSALEPSTSSSPRGSTDSLNQGASPGGLLDPACQKTDHFLSCYPWFHGPISRVKAAQLVQLQGPDAHGVFLVRQSETRRGEYVLTFNFQGIAKHLRLSLTERGQCRVQHLHFPSVVDMLHHFQRSPIPLECGAACDVRLSSYVVVVSQPPGSCNTVLFPFSLPHWDSESLPHWGSELGLPHLSSSGCPRGLSPEGLPGRSSPPEQIFHLVPSPEELANSLQHLEHEPVNRARDSDYEMDSSSRSHLRAIDNQYTPL
B9: CLEC4D (protein, UniProt Q8WXI8 1-215, looked up)
C-type lectin domain family 4 …: MGLEKPQSKLEGGMHPQLIPSVIAVVFILLLSVCFIASCLVTHHNFSRCKRGTGVHKLEHHAKLKCIKEKSELKSAEGSTWNCCPIDWRAFQSNCYFPLTDNKTWAESERNCSGMGAHLMTISTEAEQNFIIQFLDRRLSYFLGLRDENAKGQWRWVDQTPFNPRRVFWHKNEPDNSQGENCVVLVYNQDKWAWNDVPCNFEASRICKIPGTTLN
B10: TYMP (protein, UniProt P19971 11-482, looked up)
Thymidine phosphorylase: APPAPGDFSGEGSQGLPDPSPEPKQLPELIRMKRDGGRLSEADIRGFVAAVVNGSAQGAQIGAMLMAIRLRGMDLEETSVLTQALAQSGQQLEWPEAWRQQLVDKHSTGGVGDKVSLVLAPALAACGCKVPMISGRGLGHTGGTLDKLESIPGFNVIQSPEQMQVLLDQAGCCIVGQSEQLVPADGILYAARDVTATVDSLPLITASILSKKLVEGLSALVVDVKFGGAAVFPNQEQARELAKTLVGVGASLGLRVAAALTAMDKPLGRCVGHALEVEEALLCMDGAGPPDLRDLVTTLGGALLWLSGHAGTQAQGAARVAAALDDGSALGRFERMLAAQGVDPGLARALCSGSPAERRQLLPRAREQEELLAPADGTVELVRALPLALVLHELGAGRSRAGEPLRLGVGAELLVDVGQRLRRGTPWLRVHRDGPALSGPQSRALQEALVLSDRAPFAAPSPFAELVLPPQQ
B11: SIGLEC6 (protein, UniProt O43699 27-453, looked up)
Sialic acid-binding Ig-like …: QERRFQLEGPESLTVQEGLCVLVPCRLPTTLPASYYGYGYWFLEGADVPVATNDPDEEVQEETRGRFHLLWDPRRKNCSLSIRDARRRDNAAYFFRLKSKWMKYGYTSSKLSVRVMALTHRPNISIPGTLESGHPSNLTCSVPWVCEQGTPPIFSWMSAAPTSLGPRTTQSSVLTITPRPQDHSTNLTCQVTFPGAGVTMERTIQLNVSYAPQKVAISIFQGNSAAFKILQNTSSLPVLEGQALRLLCDADGNPPAHLSWFQGFPALNATPISNTGVLELPQVGSAEEGDFTCRAQHPLGSLQISLSLFVHWKPEGRAGGVLGAVWGASITTLVFLCVCFIFRVKTRRKKAAQPVQNTDDVNPVMVSGSRGHQHQFQTGIVSDHPAEAGPISEDEQELHYAVLHFHKVQPQEPKVTDTEYSEIKIHK
B12: TNFRSF11A (protein, UniProt Q9Y6Q6 30-616, looked up)
Tumor necrosis factor …: IAPPCTSEKHYEHLGRCCNKCEPGKYMSSKCTTTSDSVCLPCGPDEYLDSWNEEDKCLLHKVCDTGKALVAVVAGNSTTPRRCACTAGYHWSQDCECCRRNTECAPGLGAQHPLQLNKDTVCKPCLAGYFSDAFSSTDKCRPWTNCTFLGKRVEHHGTEKSDAVCSSSLPARKPPNEPHVYLPGLIILLLFASVALVAAIIFGVCYRKKGKALTANLWHWINEACGRLSGDKESSGDSCVSTHTANFGQQGACEGVLLLTLEEKTFPEDMCYPDQGGVCQGTCVGGGPYAQGEDARMLSLVSKTEIEEDSFRQMPTEDEYMDRPSQPTDQLLFLTEPGSKSTPPFSEPLEVGENDSLSQCFTGTQSTVGSESCNCTEPLCRTDWTPMSSENYLQKEVDSGHCPHWAASPSPNWADVCTGCRNPPGEDCEPLVGSPKRGPLPQCAYGMGLPPEEEASRTEARDQPEDGADGRLPSSARAGAGSGSSPGGQSPASGNVTGNSNSTFISSGQVMNFKGDIIVVYVSQTSQEGAAAAAEPMGRPVQEETLARRDSFAGNGPRFPDPCGGPEGLREPEKASRPVQEQGGAKA

Each molecule was assayed on plasma proteins (assay: Plasma proteins modulated between baseline and day 28 in responders (CR, VGPR, PR; n = 19), Example 6 (Table 13)). Conditions: plasma protein (OLINK NPX); responders (CR, VGPR, PR; n = 19); itacitinib 200 mg or 300 mg QD with corticosteroids; day 28 vs baseline.
Format: in vivo, human
Method: Due to the limited sample size, steroid-naive (N=10) and steroid-refractory (N=18) patients were combined for further analysis. Broad proteomic analysis of over 1000 proteins was conducted by OLINK Proteomics (Watertown, MA) using a proximity extension assay as described by the manufacturer. Data are presented as normalized protein expression (NPX) in log 2 scale. Statistical differences were evaluated using unpaired and paired t tests, one-way […] (ANOVA), and Pearson Correlation. Significance was conferred when P<0.05.
Longitudinal differences in protein expression were analyzed by evaluating plasma samples from baseline/screening and day 28.

Going from B1 to B2, the “Fold Change, Decreased Expression from Baseline to Day 28” value (“Fold Change, Decreased Expression” below) rises from −1.4178 to −1.3184.

Going from B3 to B4, the “Fold Change, Decreased Expression” value rises from −1.6599 to −1.3154.

Compared with B5, B6 is lower in “Fold Change, Decreased Expression” value: −1.3034 for the first, −1.8393 for the second.

Going from B7 to B8, the “Fold Change, Decreased Expression” value falls from −1.6325 to −1.7273.

Compared with B9, B10 is lower in “Fold Change, Decreased Expression” value: −1.7084 for the first, −1.7313 for the second.

First: B11
Second: B12
The “Fold Change, Decreased Expression” value of the first is lower: −1.9024 for the first, −1.3519 for the second.
